Test results as given in patent US20180155451A1 (published 2018).

T1: FcγRIIa R (human, UniProt P12318 34-217)
T1 construct: extracellular domain; also called FcgRIIa R type; 2aR
T1 sequence (looked up): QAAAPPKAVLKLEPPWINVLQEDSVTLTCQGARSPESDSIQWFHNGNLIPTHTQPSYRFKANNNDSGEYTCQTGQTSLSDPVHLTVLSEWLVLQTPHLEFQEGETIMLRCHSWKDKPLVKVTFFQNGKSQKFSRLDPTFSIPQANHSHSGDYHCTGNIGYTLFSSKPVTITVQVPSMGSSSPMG

B1: GpH7-A5/GpH7-B3 variant N325_06M/GpL16-k0 (antibody, human IgG1, kappa)
heavy 1: not shown
heavy 2: not shown
light: DIVMTQSPLSLPVTPGEPASISCQASESLVHSNRNTYLHWYLQKPGQSPQLLIYKVSNRFSGVPDRFSGSGSGTDFTLKISRVEAEDVGVYYCSQNTHVPPTFGQGTKVEIERTVAAPSVFIFPPSDEQLKSGTASVVCLLNNFYPREAKVQWKVDNALQSGNSQESVTEQDSKDSTYSLSSTLTLSKADYEKHKVYACEVTHQGLSSPVTKSFNRGEC
notes: also called He Ab N325_06M
B2: GpH7-A5/GpH7-B3 variant E333_15Y/GpL16-k0 (antibody, human IgG1, kappa)
heavy 1: not shown
heavy 2: not shown
light: B1 light
notes: also called He Ab E333_15Y
B3: GpH7-A5/GpH7-B3 variant A330_01G/GpL16-k0 (antibody, human IgG1, kappa)
heavy 1: not shown
heavy 2: not shown
light: B1 light
notes: also called He Ab A330_01G
B4: GpH7-A5/GpH7-B3 variant E269_09D/GpL16-k0 (antibody, human IgG1, kappa)
heavy 1: not shown
heavy 2: not shown
light: B1 light
notes: also called He Ab E269_09D
B5: GpH7-A5/GpH7-B3 variant A327_09D/GpL16-k0 (antibody, human IgG1, kappa)
heavy 1: not shown
heavy 2: not shown
light: B1 light
notes: also called He Ab A327_09D
B6: GpH7-A5/GpH7-B3 variant A330_12R/GpL16-k0 (antibody, human IgG1, kappa)
heavy 1: not shown
heavy 2: not shown
light: B1 light
notes: also called He Ab A330_12R
B7: GpH7-A5/GpH7-B3 variant A330_15Y/GpL16-k0 (antibody, human IgG1, kappa)
heavy 1: not shown
heavy 2: not shown
light: B1 light
notes: also called He Ab A330_15Y
B8: GpH7-A5/GpH7-B3 variant E333_05P/GpL16-k0 (antibody, human IgG1, kappa)
heavy 1: not shown
heavy 2: not shown
light: B1 light
notes: also called He Ab E333_05P
B9: GpH7-A5/GpH7-B3 variant E333_04F/GpL16-k0 (antibody, human IgG1, kappa)
heavy 1: not shown
heavy 2: not shown
light: B1 light
notes: also called He Ab E333_04F
B10: GpH7-A5/GpH7-B3 variant E333_09D/GpL16-k0 (antibody, human IgG1, kappa)
heavy 1: not shown
heavy 2: not shown
light: B1 light
notes: also called He Ab E333_09D
B11: GpH7-A5/GpH7-B3 variant E333_07I/GpL16-k0 (antibody, human IgG1, kappa)
heavy 1: not shown
heavy 2: not shown
light: B1 light
notes: also called He Ab E333_07I
B12: GpH7-A5/GpH7-B3 variant A330_05P/GpL16-k0 (antibody, human IgG1, kappa)
heavy 1: not shown
heavy 2: not shown
light: B1 light
notes: also called He Ab A330_05P
B13: GpH7-A5/GpH7-B3 variant A330_19Q/GpL16-k0 (antibody, human IgG1, kappa)
heavy 1: not shown
heavy 2: not shown
light: B1 light
notes: also called He Ab A330_19Q
B14: GpH7-A5/GpH7-B3 variant A330_11K/GpL16-k0 (antibody, human IgG1, kappa)
heavy 1: not shown
heavy 2: not shown
light: B1 light
notes: also called He Ab A330_11K
B15: GpH7-A5/GpH7-B3 variant E333_08L/GpL16-k0 (antibody, human IgG1, kappa)
heavy 1: not shown
heavy 2: not shown
light: B1 light
notes: also called He Ab E333_08L
B16: GpH7-A5/GpH7-B3 variant A327_10E/GpL16-k0 (antibody, human IgG1, kappa)
heavy 1: not shown
heavy 2: not shown
light: B1 light
notes: also called He Ab A327_10E
B17: GpH7-A5/GpH7-B3 variant I336_10E/GpL16-k0 (antibody, human IgG1, kappa)
heavy 1: not shown
heavy 2: not shown
light: B1 light
notes: heterodimerized; also called He Ab I336_10E
B18: GpH7-A5/GpH7-B3 variant P271_02A/GpL16-k0 (antibody, human IgG1, kappa)
heavy 1: not shown
heavy 2: not shown
light: B1 light
notes: heterodimerized; also called He Ab P271_02A
B19: GpH7-A5/GpH7-B3 variant L234_15Y/GpL16-k0 (antibody, human IgG1, kappa)
heavy 1: not shown
heavy 2: not shown
light: B1 light
notes: heterodimerized; also called He Ab L234_15Y; GpH7-A5/GpH7-B3-01-15Y/GpL16-k0
B20: GpH7-A5/GpH7-B3 variant K326_16H/GpL16-k0 (antibody, human IgG1, kappa)
heavy 1: not shown
heavy 2: not shown
light: B1 light
notes: heterodimerized; also called He Ab K326_16H
B21: GpH7-A5/GpH7-B3 variant P271_13S/GpL16-k0 (antibody, human IgG1, kappa)
heavy 1: not shown
heavy 2: not shown
light: B1 light
notes: heterodimerized; also called He Ab P271_13S
B22: GpH7-A5/GpH7-B3 variant L234_06M/GpL16-k0 (antibody, human IgG1, kappa)
heavy 1: not shown
heavy 2: not shown
light: B1 light
notes: heterodimerized; also called He Ab L234_06M
B23: GpH7-A5/GpH7-B3 variant K334_12R/GpL16-k0 (antibody, human IgG1, kappa)
heavy 1: not shown
heavy 2: not shown
light: B1 light
notes: heterodimerized; also called He Ab K334_12R
B24: GpH7-A5/GpH7-B3 variant L328_14T/GpL16-k0 (antibody, human IgG1, kappa)
heavy 1: not shown
heavy 2: not shown
light: B1 light
notes: heterodimerized; also called He Ab L328_14T
B25: GpH7-A5/GpH7-B3 variant P238_06M/GpL16-k0 (antibody, human IgG1, kappa)
heavy 1: not shown
heavy 2: not shown
light: B1 light
notes: heterodimerized; also called He Ab P238_06M
B26: GpH7-A5/GpH7-B3 variant Q295_02A/GpL16-k0 (antibody, human IgG1, kappa)
heavy 1: not shown
heavy 2: not shown
light: B1 light
notes: heterodimerized; also called He Ab Q295_02A
B27: GpH7-A5/GpH7-B3 variant P238_04F/GpL16-k0 (antibody, human IgG1, kappa)
heavy 1: not shown
heavy 2: not shown
light: B1 light
notes: heterodimerized; also called He Ab P238_04F
B28: GpH7-A5/GpH7-B3 variant L328_03V/GpL16-k0 (antibody, human IgG1, kappa)
heavy 1: not shown
heavy 2: not shown
light: B1 light
notes: heterodimerized; also called He Ab L328_03V
B29: GpH7-A5/GpH7-B3 variant P271_06M/GpL16-k0 (antibody, human IgG1, kappa)
heavy 1: not shown
heavy 2: not shown
light: B1 light
notes: heterodimerized; also called He Ab P271_06M
B30: GpH7-A5/GpH7-B3 variant P271_12R/GpL16-k0 (antibody, human IgG1, kappa)
heavy 1: not shown
heavy 2: not shown
light: B1 light
notes: heterodimerized; also called He Ab P271_12R
B31: GpH7-A5/GpH7-B3 variant P271_07I/GpL16-k0 (antibody, human IgG1, kappa)
heavy 1: not shown
heavy 2: not shown
light: B1 light
notes: heterodimerized; also called He Ab P271_07I
B32: GpH7-A5/GpH7-B3 variant P238_15Y/GpL16-k0 (antibody, human IgG1, kappa)
heavy 1: not shown
heavy 2: not shown
light: B1 light
notes: heterodimerized; also called He Ab P238_15Y
B33: GpH7-A5/GpH7-B3 variant P238_08L/GpL16-k0 (antibody, human IgG1, kappa)
heavy 1: not shown
heavy 2: not shown
light: B1 light
notes: heterodimerized; also called He Ab P238_08L
B34: GpH7-A5/GpH7-B3 variant K334_06M/GpL16-k0 (antibody, human IgG1, kappa)
heavy 1: not shown
heavy 2: not shown
light: B1 light
notes: heterodimerized; also called He Ab K334_06M
B35: GpH7-A5/GpH7-B3 variant K326_18N/GpL16-k0 (antibody, human IgG1, kappa)
heavy 1: not shown
heavy 2: not shown
light: B1 light
notes: heterodimerized; also called He Ab K326_18N
B36: GpH7-A5/GpH7-B3 variant L234_10E/GpL16-k0 (antibody, human IgG1, kappa)
heavy 1: not shown
heavy 2: not shown
light: B1 light
notes: heterodimerized; also called He Ab L234_10E; GpH7-A5/GpH7-B16/GpL16-k0
B37: GpH7-A5/GpH7-B3 variant K326_12R/GpL16-k0 (antibody, human IgG1, kappa)
heavy 1: not shown
heavy 2: not shown
light: B1 light
notes: heterodimerized; also called He Ab K326_12R
B38: GpH7-A5/GpH7-B3 variant L328_20W/GpL16-k0 (antibody, human IgG1, kappa)
heavy 1: not shown
heavy 2: not shown
light: B1 light
notes: heterodimerized; also called He Ab L328_20W
B39: GpH7-A5/GpH7-B3 variant L328_19Q/GpL16-k0 (antibody, human IgG1, kappa)
heavy 1: not shown
heavy 2: not shown
light: B1 light
notes: heterodimerized; also called He Ab L328_19Q
B40: GpH7-A5/GpH7-B3 variant L234_04F/GpL16-k0 (antibody, human IgG1, kappa)
heavy 1: not shown
heavy 2: not shown
light: B1 light
notes: heterodimerized; also called He Ab L234_04F
B41: GpH7-A5/GpH7-B3 variant P238_03V/GpL16-k0 (antibody, human IgG1, kappa)
heavy 1: not shown
heavy 2: not shown
light: B1 light
notes: heterodimerized; also called He Ab P238_03V
B42: GpH7-A5/GpH7-B3 variant I336_18N/GpL16-k0 (antibody, human IgG1, kappa)
heavy 1: not shown
heavy 2: not shown
light: B1 light
notes: heterodimerized; also called He Ab I336_18N
B43: GpH7-A5/GpH7-B3 variant L234_07I/GpL16-k0 (antibody, human IgG1, kappa)
heavy 1: not shown
heavy 2: not shown
light: B1 light
notes: heterodimerized; also called He Ab L234_07I
B44: GpH7-A5/GpH7-B3 variant K334_10E/GpL16-k0 (antibody, human IgG1, kappa)
heavy 1: not shown
heavy 2: not shown
light: B1 light
notes: heterodimerized; also called He Ab K334_10E
B45: GpH7-A5/GpH7-B3 variant P271_20W/GpL16-k0 (antibody, human IgG1, kappa)
heavy 1: not shown
heavy 2: not shown
light: B1 light
notes: heterodimerized; also called He Ab P271_20W
B46: GpH7-A5/GpH7-B3 variant K326_15Y/GpL16-k0 (antibody, human IgG1, kappa)
heavy 1: not shown
heavy 2: not shown
light: B1 light
notes: heterodimerized; also called He Ab K326_15Y
B47: GpH7-A5/GpH7-B3 variant K334_20W/GpL16-k0 (antibody, human IgG1, kappa)
heavy 1: not shown
heavy 2: not shown
light: B1 light
notes: heterodimerized; also called He Ab K334_20W
B48: GpH7-A5/GpH7-B3 variant L234_03V/GpL16-k0 (antibody, human IgG1, kappa)
heavy 1: not shown
heavy 2: not shown
light: B1 light
notes: heterodimerized; also called He Ab L234_03V
B49: GpH7-A5/GpH7-B3 variant L328_10E/GpL16-k0 (antibody, human IgG1, kappa)
heavy 1: not shown
heavy 2: not shown
light: B1 light
notes: heterodimerized; also called He Ab L328_10E
B50: GpH7-A5/GpH7-B3 variant P271_11K/GpL16-k0 (antibody, human IgG1, kappa)
heavy 1: not shown
heavy 2: not shown
light: B1 light
notes: heterodimerized; also called He Ab P271_11K
B51: GpH7-A5/GpH7-B3 variant P271_03V/GpL16-k0 (antibody, human IgG1, kappa)
heavy 1: not shown
heavy 2: not shown
light: B1 light
notes: heterodimerized; also called He Ab P271_03V
B52: GpH7-A5/GpH7-B3 variant K326_14T/GpL16-k0 (antibody, human IgG1, kappa)
heavy 1: not shown
heavy 2: not shown
light: B1 light
notes: heterodimerized; also called He Ab K326_14T
B53: GpH7-A5/GpH7-B3 variant P271_04F/GpL16-k0 (antibody, human IgG1, kappa)
heavy 1: not shown
heavy 2: not shown
light: B1 light
notes: heterodimerized; also called He Ab P271_04F
B54: GpH7-A5/GpH7-B3 variant P238_10E/GpL16-k0 (antibody, human IgG1, kappa)
heavy 1: not shown
heavy 2: not shown
light: B1 light
notes: heterodimerized; also called He Ab P238_10E

Biological target: T1, FcγRIIa R
Test: SPR Biacore; vs GpH7-A5/GpH7-B3/GpL16-k0 =100

Binder | He/Con_2aR
B1 | 152 % of control
B2 | 101 % of control
B3 | 109 % of control
B4 | 105 % of control
B5 | 124 % of control
B6 | 104 % of control
B7 | 102 % of control
B8 | 105 % of control
B9 | 102 % of control
B10 | 103 % of control
B11 | 104 % of control
B12 | 115 % of control
B13 | 104 % of control
B14 | 110 % of control
B15 | 103 % of control
B16 | 110 % of control

Biological target: T2, FcγRIa (human, UniProt P12314 16-292)
T2 construct: extracellular domain; also called FcgRI; CD64
T2 sequence (P12314 16-292): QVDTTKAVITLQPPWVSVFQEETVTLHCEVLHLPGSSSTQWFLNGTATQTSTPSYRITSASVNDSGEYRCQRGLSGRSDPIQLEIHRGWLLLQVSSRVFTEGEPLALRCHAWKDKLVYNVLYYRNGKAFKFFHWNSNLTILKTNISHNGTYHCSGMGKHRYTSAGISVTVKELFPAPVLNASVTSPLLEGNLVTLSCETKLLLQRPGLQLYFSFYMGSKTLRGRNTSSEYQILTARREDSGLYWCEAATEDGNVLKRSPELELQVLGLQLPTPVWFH
Test: SPR; vs GpH7-A5/GpH7-B3/GpL16-k0=100

Binder | He/Con_1a
B17 | 108 % of control
B18 | 104 % of control
B19 | 100 % of control
B20 | 103 % of control
B21 | 102 % of control
B22 | 104 % of control
B23 | 104 % of control
B24 | 100 % of control
B25 | 102 % of control
B26 | 104 % of control
B27 | 101 % of control
B28 | 101 % of control
B29 | 102 % of control
B30 | 102 % of control
B31 | 102 % of control
B32 | 101 % of control
B33 | 101 % of control
B34 | 105 % of control
B35 | 105 % of control

Binder | He/Con_1a
B36 | 100 % of control
B37 | 100 % of control
B38 | 103 % of control
B39 | 101 % of control
B40 | 101 % of control
B41 | 100 % of control
B42 | 108 % of control
B43 | 103 % of control
B44 | 110 % of control
B45 | 103 % of control
B46 | 106 % of control
B47 | 106 % of control
B48 | 104 % of control
B49 | 101 % of control
B50 | 103 % of control
B51 | 102 % of control
B52 | 104 % of control
B53 | 102 % of control
B54 | 102 % of control
